Laboratory results published in patent US20180298070A1, “PEPTIDE COMPOUND” (Takeda Pharmaceutical Company Limited, published 2018).
Non-standard residues stand in square brackets, D forms with d. Groups on a side chain read outwards from the residue. Primed or numbered codes have the meaning given here. No end group written: not given here. *: point of attachment. NMeY = CN[C@@H](Cc1ccc(O)cc1)C(=O)O; αMeF = C[C@](N)(Cc1ccccc1)C(=O)O; Myristoyl = CCCCCCCCCCCCCC(=O)*; Undecanoyl = CCCCCCCCCCC(=O)*; Lauroyl = CCCCCCCCCCCC(=O)*; Decanoyl = CCCCCCCCCC(=O)*; dIva = CC[C@@](C)(N)C(=O)O; Iva = CC[C@](C)(N)C(=O)O; PEG2′ = not defined here; PEG4′ = not defined here; Hexanoyl = CCCCCC(=O)*; Aib = CC(C)(N)C(=O)O

Columns and labels:
[1] = biological target: T1, human GIPR (human), P48546
T1 chain: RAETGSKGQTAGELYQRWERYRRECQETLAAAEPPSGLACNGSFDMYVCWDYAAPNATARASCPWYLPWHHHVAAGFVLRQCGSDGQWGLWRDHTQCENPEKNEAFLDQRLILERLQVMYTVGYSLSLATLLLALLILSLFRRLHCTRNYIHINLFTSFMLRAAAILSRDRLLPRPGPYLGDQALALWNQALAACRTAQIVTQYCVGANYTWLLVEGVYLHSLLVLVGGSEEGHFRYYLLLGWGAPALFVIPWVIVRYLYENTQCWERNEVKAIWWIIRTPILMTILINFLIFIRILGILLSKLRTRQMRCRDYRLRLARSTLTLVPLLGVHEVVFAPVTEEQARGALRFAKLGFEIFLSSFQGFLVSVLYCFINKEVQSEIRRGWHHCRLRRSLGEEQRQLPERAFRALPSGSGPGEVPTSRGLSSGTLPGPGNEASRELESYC

[2] = biological target: T2, human GLP-1R (human), P43220
T2 chain: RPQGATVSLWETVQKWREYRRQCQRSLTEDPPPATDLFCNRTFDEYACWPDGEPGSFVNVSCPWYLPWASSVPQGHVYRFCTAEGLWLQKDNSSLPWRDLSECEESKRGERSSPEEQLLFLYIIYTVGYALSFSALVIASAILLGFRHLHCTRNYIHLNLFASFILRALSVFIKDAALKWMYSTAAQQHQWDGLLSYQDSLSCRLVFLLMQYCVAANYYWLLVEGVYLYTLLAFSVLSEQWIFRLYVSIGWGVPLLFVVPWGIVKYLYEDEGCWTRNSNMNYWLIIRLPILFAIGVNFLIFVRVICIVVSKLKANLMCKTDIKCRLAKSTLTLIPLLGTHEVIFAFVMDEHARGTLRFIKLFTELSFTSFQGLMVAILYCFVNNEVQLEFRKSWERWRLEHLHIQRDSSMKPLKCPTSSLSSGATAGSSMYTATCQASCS

B1: Compound 133 (peptide)
peptide: Me-Y[Aib]EGTFISDYSIALDRIAQQNFVNW[Iva]LAQRPSSGAPPPSR
modifications: not fully specified (residue 1, C-terminus); ends and bridges not checked
How did the Agonist activity (EC50, M) [1] turn out when B1 was run?
Its Agonist activity (EC50, M) is 1.7e-12 M.

What about the Agonist activity (EC50, M) [2] of the same binder?
The Agonist activity (EC50, M) was over 1e-06 M.

B2: Compound 135 (peptide)
peptide: Me-Y[Aib]EGTFISDYSIALDRIAQ[Aib]D[αMeF]VNWLLAQRPSSGAPPPSR
modifications: not fully specified (residue 1, C-terminus); ends and bridges not checked
Which Agonist activity (EC50, M) [1] does the source give for B2 here?
The Agonist activity (EC50, M) was 1.8e-12 M.

And the Agonist activity (EC50, M) [2]?
The Agonist activity (EC50, M) was over 1e-06 M.

B3: Compound 138 (peptide)
peptide: [NMeY][Aib]EGTFISDYSI[dIva]LDRIAQQSFVNWLLAQRPSSGAPPPSR
modifications: not fully specified (N-terminus, C-terminus); ends and bridges not checked
Which Agonist activity (EC50, M) [1] does the source give for B3 here?
The Agonist activity (EC50, M) was 2.2e-12 M.

What about the Agonist activity (EC50, M) [2] of the same binder?
Its Agonist activity (EC50, M) is over 1e-06 M.

B4: Compound 141 (peptide)
peptide: [NMeY][Aib]EGTFISDYSIALDRIHQQD[αMeF]VNWLLAQRPSSGAPPPSR
modifications: not fully specified (N-terminus, C-terminus); ends and bridges not checked
Which results are given for B4?
Agonist activity (EC50, M) [1]: 1.9e-12 M; Agonist activity (EC50, M) [2]: > 1e-06 M

B5: Compound 142 (peptide)
peptide: [NMeY][Aib]EGTFISDYSIALDRIHQ[Aib]NFVNWLLAQRPSSGAPPPSR
modifications: not fully specified (N-terminus, C-terminus); ends and bridges not checked
For B5, which Agonist activity (EC50, M) [1] is on record?
The Agonist activity (EC50, M) was 2.3e-12 M.

And the Agonist activity (EC50, M) [2]?
Its Agonist activity (EC50, M) is over 1e-06 M.

B6: Compound 144 (peptide)
peptide: [NMeY][Aib]EGTFISDYSI[dIva]LDRIHQQDFVNWLLAQRPSSGAPPPSR
modifications: not fully specified (N-terminus, C-terminus); ends and bridges not checked
What does the source list for B6?
Agonist activity (EC50, M) [1]: 2.2e-12 M; Agonist activity (EC50, M) [2]: > 1e-06 M

B7: Compound 147 (peptide)
peptide: Me-Y[Aib]EGTFISDYSI[dIva]LDRIHQ[Aib]NFVNW[Iva]LAQRPSSGAPPPSR
modifications: not fully specified (residue 1, C-terminus); ends and bridges not checked
How did the Agonist activity (EC50, M) [1] turn out when B7 was run?
The Agonist activity (EC50, M) was 1.5e-12 M.

What about the Agonist activity (EC50, M) [2] of the same binder?
Its Agonist activity (EC50, M) is over 1e-06 M.

B8: Compound 155 (peptide)
peptide: Ac-Y[Aib]EGTFISDYSIALDRIAQ[Aib]S[αMeF]VNW[Iva]LAQRPSSGAPPPSR
modifications: ends and bridges not checked
Which results are given for B8?
Agonist activity (EC50, M) [1]: 1.7e-12 M; Agonist activity (EC50, M) [2]: > 1e-06 M

B9: Compound 156 (peptide)
peptide: Ac-Y[Aib]EGTFISDYSIALDR[Aib]HQ[Aib]NFVNW[Iva]LAQRPSSGAPPPSR
modifications: ends and bridges not checked
What does the source list for B9?
Agonist activity (EC50, M) [1]: 4.8e-12 M; Agonist activity (EC50, M) [2]: > 1e-06 M

B10: Compound 162 (peptide)
peptide: Y[Aib]EGTVVSLYSI[Aib]LDKQAQ[Aib]EFVKWLLKGK([PEG(2)-Pal])
modifications: ends and bridges not checked
For B10, which Agonist activity (EC50, M) [1] is on record?
Its Agonist activity (EC50, M) is 2.7e-10 M.

And the Agonist activity (EC50, M) [2]?
The Agonist activity (EC50, M) was over 1e-06 M.

B11: Compound 172 (peptide)
peptide: Y[Aib]EGTFISDYSK([PEG(2)-Pal])ALDRIHQQDFVNWLLAQRPSSGAPPPS
modifications: ends and bridges not checked
Which results are given for B11?
Agonist activity (EC50, M) [1]: 2e-12 M; Agonist activity (EC50, M) [2]: > 1e-06 M

B12: Compound 174 (peptide)
peptide: Y[Aib]EGTFISDYSK([PEG(2)-Hexanoyl])ALDRIHQQDFVNWLLAQRPSSGAPPPS
modifications: ends and bridges not checked
Which results are given for B12?
Agonist activity (EC50, M) [1]: 4.2e-12 M; Agonist activity (EC50, M) [2]: > 1e-06 M

B13: Compound 175 (peptide)
peptide: Y[Aib]EGTFISDYSK([PEG(2)-Lauroyl])ALDRIHQQDFVNWLLAQRPSSGAPPPS
modifications: ends and bridges not checked
What does the source list for B13?
Agonist activity (EC50, M) [1]: 3.5e-12 M; Agonist activity (EC50, M) [2]: > 1e-06 M

B14: Compound 182 (peptide)
peptide: Y[Aib]EGTFISDYSK([PEG2′-Decanoyl])ALDRIAQQDFVNWLLAQRPSSGAPPPSR
modifications: ends and bridges not checked
For B14, which Agonist activity (EC50, M) [1] is on record?
Its Agonist activity (EC50, M) is 3.3e-12 M.

And the Agonist activity (EC50, M) [2]?
Its Agonist activity (EC50, M) is 4.8e-08 M.

B15: Compound 183 (peptide)
peptide: Y[Aib]EGTFISDYSK([PEG2′-Undecanoyl])ALDRIAQQDFVNWLLAQRPSSGAPPPSR
modifications: ends and bridges not checked
Which Agonist activity (EC50, M) [1] does the source give for B15 here?
Its Agonist activity (EC50, M) is 3.4e-12 M.

And the Agonist activity (EC50, M) [2]?
Its Agonist activity (EC50, M) is 3.3e-08 M.

B16: Compound 184 (peptide)
peptide: Y[Aib]EGTFISDYSK([PEG2′-Lauroyl])ALDRIAQQDFVNWLLAQRPSSGAPPPSR
modifications: ends and bridges not checked
With B16 as the binder, how does the Agonist activity (EC50, M) [1] read?
The Agonist activity (EC50, M) was 3.6e-12 M.

And the Agonist activity (EC50, M) [2]?
The Agonist activity (EC50, M) was 3e-08 M.

B17: Compound 186 (peptide)
peptide: Y[Aib]EGTFISDYSK([PEG2′-Myristoyl])ALDRIAQQDFVNWLLAQRPSSGAPPPSR
modifications: ends and bridges not checked
Which results are given for B17?
Agonist activity (EC50, M) [1]: 6.4e-12 M; Agonist activity (EC50, M) [2]: 1.3e-08 M

B18: Compound 189 (peptide)
peptide: Y[Aib]EGTFISDYSK([PEG4′-Lauroyl])ALDRIAQQDFVNWLLAQRPSSGAPPPSR
modifications: ends and bridges not checked
With B18 as the binder, how does the Agonist activity (EC50, M) [1] read?
The Agonist activity (EC50, M) was 6.8e-12 M.

What about the Agonist activity (EC50, M) [2] of the same binder?
Its Agonist activity (EC50, M) is 2.7e-08 M.

B19: Compound 190 (peptide)
peptide: Y[Aib]EGTFISDYSK([PEG(4)-Pal])ALDRIAQQDFVNWLLAQRPSSGAPPPSR
modifications: ends and bridges not checked
For B19, which Agonist activity (EC50, M) [1] is on record?
Its Agonist activity (EC50, M) is 2.1e-11 M.

And the Agonist activity (EC50, M) [2]?
Its Agonist activity (EC50, M) is over 1e-06 M.

B20: Compound 192 (peptide)
peptide: Y[Aib]EGTFISDYSK([PEG(2)-Lauroyl])ALDRIAQQDFVNWLLAQRPSSGAPPPS
modifications: ends and bridges not checked
B20 was tested. Which Agonist activity (EC50, M) [1] did it give?
Its Agonist activity (EC50, M) is 6.5e-12 M.

And the Agonist activity (EC50, M) [2]?
Its Agonist activity (EC50, M) is 1.5e-08 M.

B21: Compound 198 (peptide)
peptide: Y[Aib]EGTFISDYSK([PEG(2)-Lauroyl])ALDR[Aib]AQQDFVNWLLAQRPSSGAPPPSR
modifications: ends and bridges not checked
Which results are given for B21?
Agonist activity (EC50, M) [1]: 4.5e-12 M; Agonist activity (EC50, M) [2]: 2.8e-08 M

B22: Compound 202 (peptide)
peptide: Y[Aib]EGTFISDYSK([PEG(2)-Lauroyl])ALDRIAQQD[αMeF]VNWLLAQRPSSGAPPPS
modifications: ends and bridges not checked
For B22, which Agonist activity (EC50, M) [1] is on record?
Its Agonist activity (EC50, M) is 4.6e-12 M.

And the Agonist activity (EC50, M) [2]?
The Agonist activity (EC50, M) was 1.8e-07 M.

B23: Compound 206 (peptide)
peptide: Y[Aib]EGTFISDYSK([PEG(2)-Lauroyl])[dIva]LDRIAQQDFVNWLLAQRPSSGAPPPS
modifications: ends and bridges not checked
With B23 as the binder, how does the Agonist activity (EC50, M) [1] read?
Its Agonist activity (EC50, M) is 2.1e-11 M.

And the Agonist activity (EC50, M) [2]?
The Agonist activity (EC50, M) was over 1e-06 M.

B24: Compound 208 (peptide)
peptide: Y[Aib]EGTFISDYSK([PEG(2)-Lauroyl])ALDRIHQQD[αMeF]VNWLLAQRPSSGAPPPS
modifications: ends and bridges not checked
For B24, which Agonist activity (EC50, M) [1] is on record?
The Agonist activity (EC50, M) was 6.1e-12 M.

And the Agonist activity (EC50, M) [2]?
The Agonist activity (EC50, M) was over 1e-06 M.
